Source: the supplement of paper PMC10899765
Values joined by “and” are separate entries in the source; they are usually repeats but may differ in a detail not shown here. Identical values can stand only once.

Tests used:
Settings in all cases: 20 nM; 72 h
MCF10A [1] = assay: percent viability (nuclei count relative to siNT); higher = more viable cells
Method: (§1)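 After 72 h, cells were fixed and stained with Hoechst and anti-fibrillarin, and nucleoli per nucleus were counted with CellProfiler. Values are plate-adjusted percent effect for the one-nucleolus and 5+ nucleoli phenotypes, normalised to siNT (0%) and to the positive controls siNOL11 or siKIF11 (100%), as the mean of biological triplicates. Percent viability is the nuclei count relative to siNT.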

MCF10A [2] = assay: one-nucleolus phenotype percent effect (relative to siNT 0% and siNOL11 100%); higher = more cells with one nucleolus (ribosome biogenesis inhibition)
Method: as §1

MCF10A [3] = assay: 5+ nucleoli phenotype percent effect (relative to siNT 0% and siKIF11 100%); higher = more cells with five or more nucleoli
Method: as §1

Sequence	percent viability (MCF10A [1])	one-nucleolus phenotype percent effect (MCF10A [2])	5+ nucleoli phenotype percent effect (MCF10A [3])
GCUUCUGUAGUGUAGUC [hsa-miR-3182]	57%	-17.1%	35.6%
GUGUGGAAGAUGGGAGGAGAAA [hsa-miR-6833-5p]	49.8%	-3.83%	4.29%
ACUGCCCCAGGUGCUGCUGG [hsa-miR-324-3p]	68%	-7.87%	37.7%
UGGGAGGGCGUGGAUGAUGGUG [hsa-miR-6785-5p]	51.8%	-4.23%	15%
GGAGGAACCUUGGAGCUUCGGC [hsa-miR-3928]	50%	-14.5%	45.7%
AACUCUGACCCCUUAGGUUGAU [hsa-miR-4714-5p]	41.1%	-5.26%	-16.1%
GGGUUUGUAGCUUUGCUGGCAUG [hsa-miR-5087]	26.6%	4.68%	6.11%
UGAAGCCAGCUCUGGUCUGGGC [hsa-miR-4786-3p]	29%	25%	-24%
UAGGAGGGAAUAGUAAAAGCAG [hsa-miR-4779]	15%	54.7%	-25.8%
CAAAGAGGAAGGUCCCAUUAC [hsa-miR-583]	69.2%	27.5%	-24.7%
UACGUCAUCGUUGUCAUCGUCA [hsa-miR-598]	151%	-26.8%	47.8%
UUUUCAACUCUAAUGGGAGAGA [hsa-miR-1305]	72.2%	9.11%	-6.71%
GAAGCUCUCCCCUCCCCGCAG [hsa-miR-6796-3p]	103%	-14.7%	5.79%
CAGGACUUGACGGCUGCAACU [hsa-miR-8083]	71%	-1.33%	22.5%
UCUUCUUCCUUUGCAGAGUUGA [hsa-miR-4778-3p]	77.1%	-1.98%	1.95%
CUACAGGCUGGAAUGGGCUCA [hsa-miR-7151-3p]	20.6%	13.6%	2.37%
UUGGGUUUUCUCUUCAAUCCAG [hsa-miR-6839-3p]	22.3%	14.2%	-18.2%
UACUGCAGACGUGGCAAUCAUG [hsa-miR-509-3-5p]	26.5%	26.3%	-30.4%
GGCAGGUUCUCACCCUCUCUAGG [hsa-miR-657]	44.7%	4.3%	15.8%
UCUGGGUGCAGUGGGGGUU [hsa-miR-6776-5p]	2.41%	24.4%	-32.7%

Sequence	percent viability (MCF10A [1])	one-nucleolus phenotype percent effect (MCF10A [2])	5+ nucleoli phenotype percent effect (MCF10A [3])
UUCGCGGGCGAAGGCAAAGUC [hsa-miR-3124-5p]	32.5%	3.56%	18.7%
AGCGCGGGCUGAGCGCUGCCAGUC [hsa-miR-2277-5p]	31.3%	25.5%	-22.4%
UGCCCUGCAUGGUGUCCCCACAG [hsa-miR-6799-3p]	41.1%	6.43%	-1.27%
UCGGGGAGUCUGGGGUCCGGAAU [hsa-miR-6889-5p]	30.7%	6.17%	3.52%
AUGCGGACCUGGGUUAGCGGAGU [hsa-miR-4754]	38.8%	47.4%	-38.9%
AUGGUACCCUGGCAUACUGAGU [hsa-miR-1263]	24.8%	49.6%	-22.2%
AAAGGUAAUUGCAGUUUUUCCC [hsa-miR-570-5p]	95.2%	-30.8%	56.8%
UGCUAGUCUGGACUGAUAUGGU [hsa-miR-8086]	31.7%	-8.07%	-8.54%
CCGUGUUUCCCCCACGCUUU [hsa-miR-3676-3p]	72.3%	4.15%	-17.2%
GCUGCGCUUGGAUUUCGUCCCC [hsa-miR-191-3p]	71%	5.27%	5.48%
ACGUUGGCUCUGGUGGUG [hsa-miR-1306-3p]	18.4%	38.2%	-4.59%
CAACAAAUCACAGUCUGCCAUA [hsa-miR-7-1-3p]	98.9%	-2.83%	23.6%
UCGGGGAUCAUCAUGUCACGAGA [hsa-miR-542-5p]	81.9%	1.02%	30.4%
UGCUGGGGGCCACAUGAGUGUG [hsa-miR-4731-5p]	20.7%	40.3%	-2.14%
UGGGAACGGGUUCCGGCAGACGCUG [hsa-miR-1292-5p]	60.3%	13.5%	-16.7%
CUGGGAGGUGGAUGUUUACUUC [hsa-miR-30b-3p]	12.9%	39.4%	-27.8%
CUGGGCUCGGGACGCGCGGCU [hsa-miR-4674]	31.3%	18.5%	-33.5%
UACAGAUGCAGAUUCUCUGACUUC [hsa-miR-5683]	40.9%	15.3%	8.12%
AGUUGCCAGGGCUGCCUUUGGU [hsa-miR-6501-5p]	47.2%	5.87%	-26.4%
ACACAUGGGUGGCUGUGGCCU [hsa-miR-4717-3p]	66.4%	-12.1%	24.6%

Sequence	percent viability (MCF10A [1])	one-nucleolus phenotype percent effect (MCF10A [2])	5+ nucleoli phenotype percent effect (MCF10A [3])
CCAGGGGGAUGGGCGAGCUUGGG [hsa-miR-6798-5p]	77.9%	-16.7%	13.9%
AGGAGAAGUAAAGUAGAA [hsa-miR-4434]	74.7%	-15.7%	49.4%
AAUAAUAUCACAGUAGGUGUAC [hsa-miR-5692c]	133%	-21.3%	46%
AAGUCCCACUAAUGCCAGC [hsa-miR-5588-3p]	42.5%	6.67%	-3.98%
GCAGGUGCUCACUUGUCCUCCU [hsa-miR-764]	23.9%	49.3%	-23.5%
UCUGGCCAGCUACGUCCCCA [hsa-miR-3190-5p]	48.9%	-10.2%	19.8%
ACUGCAGUGAAGGCACUUGUAG [hsa-miR-17-3p]	70.9%	-6.73%	12.2%
AGGUUACCCGAGCAACUUUGCAU [hsa-miR-409-5p]	21.8%	42.3%	-20.6%
CACGCUCAUGCACACACCCACA [hsa-miR-574-3p]	82.7%	-8.15%	-3.95%
UGCCCUAAAUGCCCCUUCUGGC [hsa-miR-18b-3p]	98.8%	-2.3%	-9.28%
AGGGCAUGUCCAGGGGGU [hsa-miR-4253]	28.5%	18.3%	17.7%
UGCUAUGCCAACAUAUUGCCAU [hsa-miR-31-3p]	34.2%	27.9%	-33.1%
AUCAUACAAGGACAAUUUCUUU [hsa-miR-539-3p]	39.4%	-9.28%	-9.08%
UCCCCAACCCCUGCCCGCAG [hsa-miR-6793-3p]	27.6%	13.9%	-15.2%
CGGCCCGGGCUGCUGCUGUUCCU [hsa-miR-1538]	144%	-27.8%	45%
AAAGAUAGACAAUUGGCUAAAU [hsa-miR-4662a-3p]	83.7%	-23.7%	4.11%
UGGCCGGAUGGGACAGGAGGCAU [hsa-miR-4743-5p]	25.6%	20.6%	-11.6%
GGGGGGGGGGGGGGGGGGCCG [hsa-miR-1234-5p]	78.1%	-31.5%	65.1%
GCGGCGAGUCCGACUCAU [hsa-miR-4285]	–	-17.6% and -20.2%	32.6% and 20.7%
AAAAACUGUAAUUACUUUU [hsa-miR-548f]	–	-26.8% and -24.7% and -21.2%	53.7% and 60% and 60.4%
